Reference: patent US20170355750A1 (ACADEMIA SINICA, published 2017)

Assays:
[1] = target: T1, HER2 on the surface of N87 cells (human, UniProt P04626); test: flow cytometry on N87 cells; scFv detected with AL2-RFP (1:1 scFv:AL fragment); MFI adjusted over cells with AL2-RFP without scFv
T1 construct: full-length receptor on the cell surface

[2] = target: T2, HER2 on the surface of BT474 cells (human, UniProt P04626); test: flow cytometry on BT474 cells; scFv detected with AL2-RFP (1:1 scFv:AL fragment); MFI adjusted over cells with AL2-RFP without scFv
T2 construct: full-length receptor on the cell surface

B1: GH2-61 scFv (scFv)
scFv: DIQMTQSPSSLSASVGDRVTITCRASQDVGSNVAWYQQKPGKAPKLLISWSTSLYSGVPSRFSGSGSGTDFTLTISSLQPEDFATYYCQQYGGWPITFGQGTKVEIKRGGGGSIEGRSGGGGSEVQLVESGGGLVQPGGSLRLSCAASGFTINNWGIHWVRQAPGKGLEWVAGIWPYGGYTYYADSVKGRFTISADTSKNTAYLQMNSLRAEDTAVYYCARFYNHHGGVMDYWGQGTLVTVSSASAAA
B1: binds [1]; binds [2].

B2: GH2-20 scFv (scFv)
scFv: DIQMTQSPSSLSASVGDRVTITCRASQDVNNNVAWYQQKPGKAPKLLIYWTTYLYSGVPSRFSGSGSGTDFTLTISSLQPEDFATYYCQQGSNWPITFGQGTKVEIKRGGSSRSSSSGGGGSGGGGEVQLVESGGGLVQPGGSLRLSCAASGLTINDYGIHWVRQAPGKGLEWVASIGPSGGFTSYADSVKGRFTISADTSKNTAYLQMNSLRAEDTAVYYCARFVIYWGFFMDYWGQGTLVTVSSASAAA
B2: binds [1]; binds [2].

B3: GH2-41 scFv (scFv)
scFv: DIQMTQSPSSLSASVGDRVTITCRASQDVSNSVAWYQQKPGKAPKLLISGAAWLYSGVPSRFSGSGSGTDFTLTISSLQPEDFATYYCQQSGNFPLTFGQGTKVEIKRGGSSRSSSSGGGGSGGGGEVQLVESGGGLVQPGGSLRLSCAASGFTISNWGIHWVRQAPGKGLEWVASIGPSGGFTSYADSVKGRFTISADTSKNTAYLQMNSLRAEDTAVYYCARFYIYGGVIMDYWGQGTLVTVSSASAAA
B3: binds [1]; binds [2].

B4: GH2-50 scFv (scFv)
scFv: DIQMTQSPSSLSASVGDRVTITCRASQDVFYGVAWYQQKPGKAPKLLIFWTTYLYSGVPSRFSGSGSGTDFTLTISSLQPEDFATYYCQQYFNWPLTFGQGTKVEIKRGGSSRSSSSGGGGSGGGGEVQLVESGGGLVQPGGSLRLSCAASGFTINNDGIHWVRQAPGKGLEWVAAIGPFWGSTDYADSVKGRFTISADTSTNTAYLHMNSLRAEDTALYYCARFGNYYDGVMDYWGQGTLVTVSSASAAA
B4: binds [1]; binds [2].

B5: H32 scFv (scFv)
scFv: DIQMTQSPSSLSASVGDRVTITCKASQNVGTAVAWYQQKPGKAPKLLIYSASNRYTGVPSRFSGSGSGTDFTLTISSLQPEDFATYYCQQYSSYPLAFGQGTKVEIKRGGGGSIEGRSGGGGSEVQLVESGGGLVQPGGSLRLSCKASGFNIKDYFMYWVRQAPGKGLEWVGWIDPENGNTIYDPKFQGRFTISADTSKNTAYLQMNSLRAEDTAVYYCTRGYYGSRVLAMDYWGQGTLVTVSSASAAA
notes: also called scFv(H32)
B5: binds [1]; binds [2].
